Laboratory results taken from publication PMC4598080.

B1: C-terminally TAP-tagged Acl4 (natural protein)
chain: MSELEATIRQAKEALAENNAKKALKILKPFKSSLKKENANNVILNEVFADAYLDNGQVEKAYPILARACELDPEGQVGGPDKFFTMGQIMGGQDGVSIITRGIMNISNTGGEMLTNVQVEKIVGGLLSVIEIWMTDLCMEPNAEEQCEELIQKAMELTEGKSPETWSTLGSIKISQQKFGEAYEAFSQAWNFFELKKQEIGSGINENGDTTQKAGLQSEYVDLLQPLLSLTKMCLEVGAYEVALKVIAAVRDIDEDNIEGYYLEGFTYYLMSKLEIFKLNNPEVSLRPENIYEFNQLIQEVPLDLSHEPISQLIYDSRLALSFALQAGVNADSKDEIVQELLGGANALLQEIGGPLDPSELTQIKKGDLVNENEDLEELDIEEEYSD
B2: Syo1-FTpA (natural protein)
chain: MGRSKKRSRASSSRLNPLRKAGSNDNNKDTNVVNKKLQPLLQNLSSVVPNDRSIALSSISVLCEDAHMRQLLLKEKLVPIILNKLLNDSNSDIVVESFGLLRNLSLEEGYDVSIYLWRSDIWTSITSNFGRIVESLSALQAAEQQPQLKPAGKSKIESKRLLFDFADNLLSLVVALSNGSDDILNEILTESKINEIFQVISQLLKYGVEKLPINLFNTTLDLIYDLSSESFEFIDHVSNNELLSQFLNGLSPALHPQANELTKVLIEGIHCQFLDMKITYDQCNKMIHSVCHSINNIDPVQLVNDINNPVEIGPATSKDESSKVITKIKDYNAKRNESMIKLQSIEIAIDLITAIIEIVASKYESPESQEVAIPEELINTLTNFLPHVFMILKDTFTSRILIGWNNLIWLFVSLSLTELSGELLTTLWSYVTQLDSQDDLSIKIGRMGCIWALLKLIFPDGAFESENRALINVQMLNNSGFARGIIEEFQNNNDLELQQKCINVLSTYAMIQGQIDANKEIGQFFIQTLTQLNVRPEILIEMTNSLFQIYGDASYDYNEPIFVRGGFLSILKDQVVPNLRQQFKMVDKNKNPELKERCHDCFTTLDSFIHYKMNENSTNQ

Assays:
[1] = target: Rpl4 (uL4), non-ribosome bound (S. cerevisiae (endogenous in yeast cells)) (UniProt P10664)
UniProt P10664, sequence (P10664 whole entry): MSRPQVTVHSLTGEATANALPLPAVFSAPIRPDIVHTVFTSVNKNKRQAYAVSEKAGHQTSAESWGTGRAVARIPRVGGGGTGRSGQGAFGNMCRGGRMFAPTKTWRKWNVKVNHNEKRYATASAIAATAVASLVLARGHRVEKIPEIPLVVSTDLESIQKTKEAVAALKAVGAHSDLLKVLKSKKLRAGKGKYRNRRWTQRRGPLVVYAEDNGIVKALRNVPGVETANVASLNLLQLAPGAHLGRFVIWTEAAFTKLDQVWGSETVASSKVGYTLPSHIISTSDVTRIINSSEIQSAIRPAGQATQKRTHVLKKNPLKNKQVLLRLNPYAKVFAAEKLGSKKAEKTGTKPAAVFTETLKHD

[2] = target: T1, Rpl5 (uL18) (S. cerevisiae (endogenous in yeast cells)) (UniProt P26321)
T1 sequence: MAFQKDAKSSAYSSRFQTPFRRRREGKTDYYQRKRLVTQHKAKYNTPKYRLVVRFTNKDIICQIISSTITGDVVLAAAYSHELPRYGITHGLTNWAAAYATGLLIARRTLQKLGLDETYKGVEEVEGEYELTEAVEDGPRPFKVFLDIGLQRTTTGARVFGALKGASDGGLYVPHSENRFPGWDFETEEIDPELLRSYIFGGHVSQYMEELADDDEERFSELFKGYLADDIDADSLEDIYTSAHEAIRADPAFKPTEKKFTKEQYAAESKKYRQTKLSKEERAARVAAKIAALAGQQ

| Binder | enrichment of the RPL4 mRNA, compared to the non-specific r-protein mRNAs, in the Acl4-TAP IgG-Sepharose purification from extracts of cycloheximide-treated cells (real-time qRT-PCR) [1] | enrichment of the RPL5 mRNA, compared to the non-specific r-protein mRNAs, in the Syo1-FTpA IgG-Sepharose purification from extracts of cycloheximide-treated cells (real-time qRT-PCR) [2] |
| --- | --- | --- |
| B1 | 150 fold | – |
| B2 | – | 150 fold |
